In the supplement of paper PMC9112550, “Optimization of the antimicrobial peptide Bac7 by deep mutational scanning” (BMC Biology, 2022):

Tested on: Escherichia coli TOP10
Test: shrunken log2 fold change of peptide-encoding DNA abundance (4.5 h post-induction vs induction); higher = less antimicrobial activity (less host growth inhibition)
Details: time post-induction: 4.5 h; library: site-saturation at positions 5, 18, 19, 20
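Also: peptides expressed intracellularly from a pBAD plasmid library in pooled LB shake-flask culture, induced with 0.3% L-arabinose, DNA abundance read by NGS, three biological replicates, DESeq2 with apeglm shrinkage.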

Sequence | shrunken log2 fold change
RRIRHRPPRLPRPRPRPRTQPRP | 0.0696
RRIRMRPPRLPRPRPRPKWSPRP | 0.894
RRIRRRPPRLPRPRPRPLHSPRP | 0.357
RRIRPRPPRLPRPRPRPSANPRP | -0.00762
RRIRNRPPRLPRPRPRPSPHPRP | -0.171
RRIRKRPPRLPRPRPRPVRQPRP | -0.0361
RRIRYRPPRLPRPRPRPRNAPRP | 0.00628
RRIRLRPPRLPRPRPRPDNEPRP | -0.162
RRIRCRPPRLPRPRPRPVMMPRP | -0.214
RRIRQRPPRLPRPRPRPEIWPRP | 0.618
RRIRRRPPRLPRPRPRPLATPRP | 0.882
RRIRPRPPRLPRPRPRPWQLPRP | 0.224
RRIRARPPRLPRPRPRPCAEPRP | 0.977
RRIRQRPPRLPRPRPRPDTAPRP | -0.0746
RRIRPRPPRLPRPRPRPNYLPRP | -0.0996
RRIRHRPPRLPRPRPRPGMLPRP | -0.0926
RRIRHRPPRLPRPRPRPAQNPRP | 0.212
RRIRHRPPRLPRPRPRPAFEPRP | -0.0402
RRIRKRPPRLPRPRPRPVTPPRP | 0.307
RRIRDRPPRLPRPRPRPTEAPRP | 0.405
RRIRQRPPRLPRPRPRPQSTPRP | -0.631
RRIRNRPPRLPRPRPRPTERPRP | -0.25
RRIRLRPPRLPRPRPRPPGFPRP | 0.278
RRIRTRPPRLPRPRPRPSLAPRP | 0.105
RRIRLRPPRLPRPRPRPNRLPRP | -0.0858

Sequence | shrunken log2 fold change
RRIRNRPPRLPRPRPRPDKSPRP | -0.193
RRIRLRPPRLPRPRPRPAGRPRP | 0.0831
RRIRQRPPRLPRPRPRPINQPRP | -0.314
RRIRKRPPRLPRPRPRPCWEPRP | 0.0666
RRIRRRPPRLPRPRPRPWNCPRP | 0.0332
RRIRERPPRLPRPRPRPSIWPRP | -0.0411
RRIRERPPRLPRPRPRPQTYPRP | -1.1
RRIRTRPPRLPRPRPRPSDFPRP | -0.704
RRIRPRPPRLPRPRPRPQVSPRP | -0.00288
RRIRQRPPRLPRPRPRPKKTPRP | -0.0104
RRIRNRPPRLPRPRPRPQNHPRP | -0.685
RRIRSRPPRLPRPRPRPFTFPRP | -0.189
RRIRCRPPRLPRPRPRPWVFPRP | -0.0816
RRIRERPPRLPRPRPRPTICPRP | -0.342
RRIRRRPPRLPRPRPRPYPAPRP | 0.0876
RRIRERPPRLPRPRPRPRVFPRP | 0.138
RRIRVRPPRLPRPRPRPAHGPRP | 0.0221
RRIRMRPPRLPRPRPRPCFVPRP | -0.103
RRIRIRPPRLPRPRPRPLVHPRP | -0.266
RRIRPRPPRLPRPRPRPVECPRP | 0.00863
RRIRQRPPRLPRPRPRPRCPPRP | 0.313
RRIRLRPPRLPRPRPRPILDPRP | -0.05
RRIRTRPPRLPRPRPRPIVTPRP | 1.13
RRIRCRPPRLPRPRPRPKTNPRP | 0.00906
RRIRARPPRLPRPRPRPRQEPRP | 0.503

Sequence | shrunken log2 fold change
RRIRRRPPRLPRPRPRPYEPPRP | -0.846
RRIRPRPPRLPRPRPRPAAIPRP | 0.0249
RRIRYRPPRLPRPRPRPCIGPRP | -0.644
RRIRFRPPRLPRPRPRPLELPRP | 0.0344
RRIRMRPPRLPRPRPRPRGAPRP | 1.44
RRIRARPPRLPRPRPRPYEQPRP | 0.0674
RRIRWRPPRLPRPRPRPFSFPRP | -0.067
RRIRKRPPRLPRPRPRPSDMPRP | 0.0199
RRIRERPPRLPRPRPRPHMCPRP | -0.0653
RRIRYRPPRLPRPRPRPIWAPRP | -0.089
RRIRIRPPRLPRPRPRPKLAPRP | -0.117
RRIRERPPRLPRPRPRPCVCPRP | -0.132
RRIRPRPPRLPRPRPRPVCTPRP | 0.0082
RRIRHRPPRLPRPRPRPITVPRP | -0.0184
RRIRLRPPRLPRPRPRPMTFPRP | -0.263
RRIRHRPPRLPRPRPRPCYEPRP | -0.185
RRIRHRPPRLPRPRPRPVPRPRP | 0.429
RRIRYRPPRLPRPRPRPTPNPRP | 0.507
RRIRGRPPRLPRPRPRPTWWPRP | 0.906
RRIRNRPPRLPRPRPRPCAGPRP | -0.123
RRIRLRPPRLPRPRPRPRFHPRP | -0.208
RRIRCRPPRLPRPRPRPDGRPRP | 0.00474
RRIRFRPPRLPRPRPRPEEYPRP | -0.00963
RRIRSRPPRLPRPRPRPTQCPRP | 0.23
RRIRQRPPRLPRPRPRPQQAPRP | -0.0512

Sequence | shrunken log2 fold change
RRIRWRPPRLPRPRPRPKPMPRP | 0.171
RRIRCRPPRLPRPRPRPKHKPRP | -0.164
RRIRQRPPRLPRPRPRPYCFPRP | -1
RRIRWRPPRLPRPRPRPEKKPRP | 0.0589
RRIRGRPPRLPRPRPRPFREPRP | -0.21
RRIRARPPRLPRPRPRPSSRPRP | -0.167
RRIRCRPPRLPRPRPRPSQNPRP | -0.141
RRIRKRPPRLPRPRPRPSYPPRP | -0.435
RRIRLRPPRLPRPRPRPTKRPRP | 0.00619
RRIRFRPPRLPRPRPRPDNSPRP | -0.726
RRIRLRPPRLPRPRPRPLCIPRP | -0.569
RRIRERPPRLPRPRPRPPPVPRP | 0.261
RRIRDRPPRLPRPRPRPPHHPRP | -0.0964
RRIRPRPPRLPRPRPRPQKYPRP | -0.257
RRIRPRPPRLPRPRPRPRYDPRP | 0.0231
RRIRMRPPRLPRPRPRPTSHPRP | 0.0149
RRIRRRPPRLPRPRPRPEEHPRP | 0.107
RRIRFRPPRLPRPRPRPDPDPRP | -0.113
RRIRKRPPRLPRPRPRPHMYPRP | -0.131
RRIRTRPPRLPRPRPRPIKEPRP | -0.253
RRIRRRPPRLPRPRPRPTEQPRP | -0.0468
RRIRQRPPRLPRPRPRPYWSPRP | -0.117
RRIRWRPPRLPRPRPRPMYSPRP | -0.612
RRIRFRPPRLPRPRPRPKQMPRP | 0.382
RRIRERPPRLPRPRPRPCLEPRP | -0.116

Sequence | shrunken log2 fold change
RRIRERPPRLPRPRPRPALYPRP | -0.129
RRIRYRPPRLPRPRPRPYPEPRP | -0.173
RRIRRRPPRLPRPRPRPQAQPRP | 0.0393
RRIRMRPPRLPRPRPRPGHPPRP | 0.196
RRIRGRPPRLPRPRPRPQKKPRP | 0.0788
RRIRQRPPRLPRPRPRPSKEPRP | -0.371
RRIRTRPPRLPRPRPRPTANPRP | 0.0721
RRIRLRPPRLPRPRPRPDVAPRP | 0.093
RRIRVRPPRLPRPRPRPQDQPRP | 0.225
RRIRIRPPRLPRPRPRPQQGPRP | -0.295
RRIRLRPPRLPRPRPRPDSDPRP | -0.0524
RRIRFRPPRLPRPRPRPNSWPRP | -0.0266
RRIRRRPPRLPRPRPRPMIHPRP | -0.0319
RRIRERPPRLPRPRPRPQKDPRP | -0.298
RRIRQRPPRLPRPRPRPDHIPRP | -0.0197
RRIRCRPPRLPRPRPRPDRHPRP | 0.0552
RRIRHRPPRLPRPRPRPCPFPRP | -0.654
RRIRMRPPRLPRPRPRPNHSPRP | -0.38
RRIRIRPPRLPRPRPRPHNWPRP | -0.239
RRIRCRPPRLPRPRPRPKITPRP | -0.573
RRIRFRPPRLPRPRPRPPGWPRP | 0.448
RRIRPRPPRLPRPRPRPHSDPRP | 0.0137
RRIRQRPPRLPRPRPRPTPQPRP | 0.89
RRIRNRPPRLPRPRPRPWFTPRP | -0.786
RRIRKRPPRLPRPRPRPQEWPRP | -0.0193

Sequence | shrunken log2 fold change
RRIRKRPPRLPRPRPRPEKMPRP | -0.0217
RRIRPRPPRLPRPRPRPLVDPRP | 0.111
RRIRGRPPRLPRPRPRPDIMPRP | 0.0438
RRIRNRPPRLPRPRPRPGKGPRP | 0.101
RRIRCRPPRLPRPRPRPGIRPRP | -0.107
RRIRIRPPRLPRPRPRPPTRPRP | 0.251
RRIRKRPPRLPRPRPRPIPIPRP | 0.136
RRIRWRPPRLPRPRPRPCTGPRP | -0.0547
RRIRKRPPRLPRPRPRPFFSPRP | -0.0214
RRIRTRPPRLPRPRPRPIGWPRP | 0.6
RRIRWRPPRLPRPRPRPAQMPRP | 0.173
RRIRMRPPRLPRPRPRPWCIPRP | -0.315
RRIRVRPPRLPRPRPRPNTRPRP | 0.02
RRIRQRPPRLPRPRPRPLLDPRP | 0.525
RRIRFRPPRLPRPRPRPWECPRP | -0.0123
RRIRKRPPRLPRPRPRPTCAPRP | 0.786
RRIRYRPPRLPRPRPRPHAGPRP | 0.0561
RRIRGRPPRLPRPRPRPFTVPRP | -0.31
RRIRHRPPRLPRPRPRPCCCPRP | -0.421
RRIRRRPPRLPRPRPRPARMPRP | 0.173
RRIRRRPPRLPRPRPRPRYGPRP | 0.0155
RRIRERPPRLPRPRPRPHYWPRP | -0.353
RRIRYRPPRLPRPRPRPENMPRP | -0.134
RRIRRRPPRLPRPRPRPIASPRP | 0.432
RRIRSRPPRLPRPRPRPYSCPRP | -0.386
